According to patent publication US20210252057A1 (published 2021):

Key:
[1] = target: T1, MCPyV T antigen homolog (C9A of …) peptide on HLA-A*02:01 (human); assay: cytokine release
T1 peptide: KLLEIAPNA

peptide on HLA-A*02:01 [2] = target: T2, peptide on HLA-A*02:01 (human); assay: cytokine release
T2 peptide: KALEIAPNC

[3] = target: T3, MCPyV Large-T sequence variant peptide on HLA-A*02:01 (human); assay: cytokine release
T3 peptide: KLLEISPNC

peptide on HLA-A*02:01 [4] = target: T4, peptide on HLA-A*02:01 (human); assay: cytokine release
T4 peptide: KLLEIAANC

[5] = target: T5, MCPyV Large-T sequence variant peptide on HLA-A*02:01 (human); assay: cytokine release
T5 peptide: KLLEITPNC

[6] = target: T6, Merkel cell polyomavirus (MCPyV) T antigen (Large-T antigen) peptide on HLA-A*02:01 (human); assay: multimer staining
T6 peptide: KLLEIAPNC

[7] = target: T6, Merkel cell polyomavirus (MCPyV) T …; assay: killing
peptide on HLA-A*02:01 [8] = target: T7, peptide on HLA-A*02:01 (human); assay: cytokine release
T7 peptide: ALLEIAPNC

Measured: binding result

B1: TCR1007 (TCR, V domains shown)
Valpha: QQQVKQSPQSLIVQKGGISIINCAYENTAFDYFPWYQQFPGKGPALLIAIRPDVSEKKEGRFTISFNKSAKQFSLHIMDSQPGDSATYFCAVPNTGNQFYFGTGTSLTVIP
Vbeta: GAGVSQSPRYKVAKRGQDVALRCDPISGHVSLFWYQQALGQGPEFLTYFQNEAQLDKSGLPSDRFFAERPEGSVSTLKIQRTQQEDSAVYLCASSLIAGLSYEQYFGPGTRLTVT
not listed: [7] | peptide on HLA-A*02:01 [8]
recognises: all other assays above

B2: TCR1072 (TCR, V domains shown)
Valpha: RKEVEQDPGPFNVPEGATVAFNCTYSNSASQSFFWYRQDCRKEPKLLMSVYSSGNEDGRFTAQLNRASQYISLLIRDSKLSDSATYLCVVTGTGGFKTIFGAGTRLFVKA
Vbeta: GEEVAQTPKHLVRGEGQKAKLYCAPIKGHSYVFWYQQVLKNEFKFLISFQNENVFDETGMPKERFSAKCLPNSPCSLEIQATKLEDSAVYFCASSSMSIAAGNTGELFFGEGSRLTVL
recognises: [7] | [1] | peptide on HLA-A*02:01 [8]
